Series [1] can be described thus: Kinetic analysis of alcohol dehydrogenase and mutants (NADPH oxidation, 340 nm, double reciprocal curve). The class given is biochemical. Conditions: substrate CPMK. How it is done: Adopting a total reaction system of 200 μL, including: 1.0 mM NADPH, 1.0 mM substrate CPMK and sodium phosphate buffer (PBS, 100 mM, pH 7.0), fully and evenly mixing, maintaining at 30° C. for 2 min, adding an appropriate amount of enzyme solution, and detecting the change in light absorption at 340 nm.
The enzyme activity was calculated by the following formula: Enzyme activity (U)=EW×V×10^3/(6220×I);
in the formula, EW is the change in absorbance at 340 nm in 1 min; V is the volume of a reaction solution in mL; 6220 is the molar extinction coefficient of NADPH in L/mol·cm); and 1 is the optical path distance in cm. One activity unit (U) corresponds to the amount of enzyme required to catalyze the oxidation of 1 μmol NADPH per minute under the above conditions.
A column used for purification was a nickel affinity column HisTrap FF crude, and purification was achieved through affinity chromatography using a histidine tag on recombinant protein. The nickel column was equilibrated with a solution A first, a crude enzyme solution was loaded, a penetrating peak was further eluted off using the solution A, and after equilibrium, a solution B (20 mM sodium phosphate, 500 mM NaCl, and 1000 mM imidazole, pH 7.4) was used for gradient elution to elute off the recombinant protein bound to the nickel column, so as to obtain the recombinant alcohol dehydrogenase mutant. The purified protein was subjected to activity measurement (CPMK as substrate, and NADPH as coenzyme) and SDS-PAGE analysis. […] The purified alcohol dehydrogenase protein was then replaced into a Tris-HCl (100 mM, pH 7.0) buffer using a Hi Trap Desalting column (GE Healthcare).
The activity of KpADH at different substrate concentrations and coenzyme concentrations was determined, and a double reciprocal curve was made based on the reciprocal of activity and substrate concentration to calculate kinetic parameters.

Series [2] can be described thus: Stereoselectivity (ee) of CPMK reduction, chiral liquid chromatography. Particulars: for ee % / e.e.: product configuration in brackets. The class given is biochemical. How it is done: In an embodiment of the present disclosure, a chromatographic analysis method is as follows: 100 μL of reactant liquid is taken, 500 μL of ethyl acetate is added, shaking is performed for 1-2 min, centrifugation is performed at 12,000 rpm for 2-5 min, supernatant liquid is taken into a centrifuge tube, after an organic phase naturally volatilizes completely, 500 μL of chromatographically pure ethanol is added, and chiral liquid chromatography and gas chromatography are performed to analyze the transformation rate and the ee value.
Method for determining optical purity ee:
As: molar concentration of (S)-CPMA obtained by liquid chromatography; and AR: molar concentration of (R)-CPMA obtained by liquid chromatography.

Where “and” joins values, the source holds several entries; their conditions need not be identical. Identical values can stand only once.

B1: E214V: valine for glutamate at position 214 of the alcohol dehydrogenase of SEQ ID No. 2 (protein)
chain: MSVLISGASGYIAKHIVRVLLEQNYKVIGTVRSQDKADKLLKQYNNPNLSYEIVPEIANLDAFDDIFKKHGKEIKYVIHAASPVNFGAKDLEKDLVIPAINGTKNMFEAIKKYAPDTVERVVMTASYASIMTPHRQNDPTLTLDEETWNPVTEENAYENVFTAYCASKTFAEKEAWKFVKENSDAVKFKLTTIHPSFVFGPQNFDEDVTKKLNVTCEIINGLLHAPFDTKVEKTHFSQFIDVRDVAKTHVLGFQKDELINQRLLLCNGAFSQQDIVNVFNEDFPELKGQFPPEDKDTDLNKGVTGCKIDNEKTKKLLAFEFTPFHKTIHDTVYQILHKEGRV
modifications: Protein translated from synthetic DNA
In general, Km refers to the substrate concentration at which the rate is half of its maximum. One may read the Vmax as the top rate of the reaction or transport when substrate is in excess. Take B1: in series [1], the Kcat was found to be 8.91 ± 0.48 s⁻¹, the Km turned out to be 420 µM and the Vmax was 13.36 ± 0.89 µM/min/mg. In series [2] (R configuration product), the “ee value, (R)-CPMA” value was 91% and 95.3%. In addition, the ee % in series [2] is listed as 95.3 (R) %.

B2: S237A: alcohol dehydrogenase mutant obtained by random mutation screening (protein)
chain: MSVLISGASGYIAKHIVRVLLEQNYKVIGTVRSQDKADKLLKQYNNPNLSYEIVPEIANLDAFDDIFKKHGKEIKYVIHAASPVNFGAKDLEKDLVIPAINGTKNMFEAIKKYAPDTVERVVMTASYASIMTPHRQNDPTLTLDEETWNPVTEENAYENVFTAYCASKTFAEKEAWKFVKENSDAVKFKLTTIHPSFVFGPQNFDEDVTKKLNITCEIINGLLHAPFDTKVEKTHFAQFIDVRDVAKTHVLGFQKDELINQRLLLCNGAFSQQDIVNVFNEDFPELKGQFPPEDKDTDLNKGVTGCKIDNEKTKKLLAFEFTPFHKTIHDTVYQILHKEGRV
modifications: Protein translated from synthetic DNA
notes: alcohol dehydrogenase mutant obtained by random mutation screening
Take B2: in series [2], the e.e. is listed as 96.1 (R).

B3: E214S: serine for glutamate at position 214 of the alcohol dehydrogenase of SEQ ID No. 2 (protein)
chain: MSVLISGASGYIAKHIVRVLLEQNYKVIGTVRSQDKADKLLKQYNNPNLSYEIVPEIANLDAFDDIFKKHGKEIKYVIHAASPVNFGAKDLEKDLVIPAINGTKNMFEAIKKYAPDTVERVVMTASYASIMTPHRQNDPTLTLDEETWNPVTEENAYENVFTAYCASKTFAEKEAWKFVKENSDAVKFKLTTIHPSFVFGPQNFDEDVTKKLNSTCEIINGLLHAPFDTKVEKTHFSQFIDVRDVAKTHVLGFQKDELINQRLLLCNGAFSQQDIVNVFNEDFPELKGQFPPEDKDTDLNKGVTGCKIDNEKTKKLLAFEFTPFHKTIHDTVYQILHKEGRV
modifications: Protein translated from synthetic DNA
For B3, in series [1], the Kcat came out at 11.86 ± 0.48 s⁻¹, the Km came out at 540 ± 70 µM and the Vmax stood at 17.79 ± 0.88 µM/min/mg. Also, in series [2], the ee % is listed as 14.2 (R) %.

B4: E214I: isoleucine for glutamate at position 214 of the alcohol dehydrogenase of SEQ ID No. 2 (protein)
chain: MSVLISGASGYIAKHIVRVLLEQNYKVIGTVRSQDKADKLLKQYNNPNLSYEIVPEIANLDAFDDIFKKHGKEIKYVIHAASPVNFGAKDLEKDLVIPAINGTKNMFEAIKKYAPDTVERVVMTASYASIMTPHRQNDPTLTLDEETWNPVTEENAYENVFTAYCASKTFAEKEAWKFVKENSDAVKFKLTTIHPSFVFGPQNFDEDVTKKLNITCEIINGLLHAPFDTKVEKTHFSQFIDVRDVAKTHVLGFQKDELINQRLLLCNGAFSQQDIVNVFNEDFPELKGQFPPEDKDTDLNKGVTGCKIDNEKTKKLLAFEFTPFHKTIHDTVYQILHKEGRV
modifications: Protein translated from synthetic DNA
For B4, in series [1], the Kcat was determined as 8.77 ± 0.23 s⁻¹, the Km was 410 ± 40 µM and the Vmax stood at 13.15 ± 0.43 µM/min/mg. Moreover, the ee % in series [2] is 93.0 (R) %.

B5: S237C: alcohol dehydrogenase mutant obtained by random mutation screening (protein)
chain: MSVLISGASGYIAKHIVRVLLEQNYKVIGTVRSQDKADKLLKQYNNPNLSYEIVPEIANLDAFDDIFKKHGKEIKYVIHAASPVNFGAKDLEKDLVIPAINGTKNMFEAIKKYAPDTVERVVMTASYASIMTPHRQNDPTLTLDEETWNPVTEENAYENVFTAYCASKTFAEKEAWKFVKENSDAVKFKLTTIHPSFVFGPQNFDEDVTKKLNGTCEIINGLLHAPFDTKVEKTHFCQFIDVRDVAKTHVLGFQKDELINQRLLLCNGAFSQQDIVNVFNEDFPELKGQFPPEDKDTDLNKGVTGCKIDNEKTKKLLAFEFTPFHKTIHDTVYQILHKEGRV
modifications: Protein translated from synthetic DNA
notes: as for B2
On to B5, for which the e.e. in series [2] is 27 (R).

B6: E214G: glycine for glutamate at position 214 of the alcohol dehydrogenase of SEQ ID No. 2 (protein)
chain: MSVLISGASGYIAKHIVRVLLEQNYKVIGTVRSQDKADKLLKQYNNPNLSYEIVPEIANLDAFDDIFKKHGKEIKYVIHAASPVNFGAKDLEKDLVIPAINGTKNMFEAIKKYAPDTVERVVMTASYASIMTPHRQNDPTLTLDEETWNPVTEENAYENVFTAYCASKTFAEKEAWKFVKENSDAVKFKLTTIHPSFVFGPQNFDEDVTKKLNGTCEIINGLLHAPFDTKVEKTHFSQFIDVRDVAKTHVLGFQKDELINQRLLLCNGAFSQQDIVNVFNEDFPELKGQFPPEDKDTDLNKGVTGCKIDNEKTKKLLAFEFTPFHKTIHDTVYQILHKEGRV
modifications: Protein translated from synthetic DNA
Consider B6, for which, in series [1], the Kcat was 5.5 ± 0.10 s⁻¹, the Km stood at 250 µM and the Vmax came to 8.26 ± 0.15 µM/min/mg. In series [2], the “configuration of product / stereoselectivity in words” value was “inversion from an R configuration to an S configuration”, the e.e. was 25.6 (S) and the ee % is 25.6 (S) %.

B7: E214R: arginine for glutamate at position 214 of the alcohol dehydrogenase of SEQ ID No. 2 (protein)
chain: MSVLISGASGYIAKHIVRVLLEQNYKVIGTVRSQDKADKLLKQYNNPNLSYEIVPEIANLDAFDDIFKKHGKEIKYVIHAASPVNFGAKDLEKDLVIPAINGTKNMFEAIKKYAPDTVERVVMTASYASIMTPHRQNDPTLTLDEETWNPVTEENAYENVFTAYCASKTFAEKEAWKFVKENSDAVKFKLTTIHPSFVFGPQNFDEDVTKKLNRTCEIINGLLHAPFDTKVEKTHFSQFIDVRDVAKTHVLGFQKDELINQRLLLCNGAFSQQDIVNVFNEDFPELKGQFPPEDKDTDLNKGVTGCKIDNEKTKKLLAFEFTPFHKTIHDTVYQILHKEGRV
modifications: Protein translated from synthetic DNA
Turning to B7, in series [1], the Kcat stood at 15.85 ± 0.49 s⁻¹, the Km was found to be 980 ± 80 µM and the Vmax was found to be 23.77 ± 0.90 µM/min/mg. Further, the ee % in series [2] was 42.5 (R) %.

B8: E214N: asparagine for glutamate at position 214 of the alcohol dehydrogenase of SEQ ID No. 2 (protein)
chain: MSVLISGASGYIAKHIVRVLLEQNYKVIGTVRSQDKADKLLKQYNNPNLSYEIVPEIANLDAFDDIFKKHGKEIKYVIHAASPVNFGAKDLEKDLVIPAINGTKNMFEAIKKYAPDTVERVVMTASYASIMTPHRQNDPTLTLDEETWNPVTEENAYENVFTAYCASKTFAEKEAWKFVKENSDAVKFKLTTIHPSFVFGPQNFDEDVTKKLNNTCEIINGLLHAPFDTKVEKTHFSQFIDVRDVAKTHVLGFQKDELINQRLLLCNGAFSQQDIVNVFNEDFPELKGQFPPEDKDTDLNKGVTGCKIDNEKTKKLLAFEFTPFHKTIHDTVYQILHKEGRV
modifications: Protein translated from synthetic DNA
Consider B8, for which, in series [1], the Kcat came out at 22.90 ± 1.12 s⁻¹, the Michaelis constant (Km) stood at 420 ± 60 µM and the Vmax is 34.35 ± 2.05 µM/min/mg. In addition, the ee % in series [2] is 58.1 (R) %.

For the origin of these results see patent publication US11078465B2, “Alcohol dehydrogenase mutant and application thereof in synthesis of diaryl chiral alcohols” (Jiangnan University, priority 2018, dated 2021).
